Data published in patent US20240218024A1, “METHODS AND COMPOSITIONS FOR TREATMENT OF VIRAL INFECTION” (TECHNION RESEARCH & DEVELOPMENT FOUNDATION LIMITED, priority 2021, published 2024).

What was measured:
SARS-COV-2 delta variant = type: cell-based; details: slncRNA alone, low concentrations (potentially a non-specific effect at higher concentrations)
[1] = system: SARS-COV-2 omicron variant; type: cell-based; details: slncRNA alone, low concentrations (potentially a non-specific effect at higher concentrations)

B1: PCP-14×/MCP-15×: class II slncRNA with fourteen PCP binding sites spaced by hairpins that do not bind PCP (SEQ ID NO: 28) (nucleic acid)
chain: GAGAAACGTTTCGACATTATATGGAATGCGAAAGTGGAACGTAATGGACATGAAGACGATTACGCTTCACACGGAGGATGCGGGAAACATGAAGATCACCCATGTTCGCTTAACCATGGATAGGGATCACCCATGTTGCGGTGGTGCGTCAACCAGAGATTTCATATGGGAAACTCTGGGACACGCTGTATTTATACATGAGGATCACCATGTGTGCTTAAATATGGGTAAGTTGACCATTAGGCAACTGTAAGATGCTCCGGTTAATTCCAGTTTATATGGAAACGGAATTGATGTACCGTTGAGCAAGAACACGATTACGGTTCTTCGATTAGATATGGTTTAAACGACAATATATGGATTGCGTTTTGGGGCACGCCGTCTGGAGAAGACCATTAGGCTTCTTTACTGCGACCGCAATAAAAGGAGATTATATGAAATCCCTTTGCGCGCAACCGGGTAGAAGATCACCATTAGGGATCTGTAACTCACGGCGCTATTACGAGTCAATATGGTGACCGTAAAGCTAGGGCATGTGCCAGAAGAGCATTAGCCTTCTCCTTGGTGGGGAAGCGATAAGCACATTATAAGGAATGGCTTAAAGTGGTGCGGCGGGGGACTTGACCATTAGGCAAGTGTGCTAGACCCTGGTCTTTTCGAGAAAATATGGTTTCCGAAAGAACTATACGAAGTGACATGCGAGGATTACCCGCATATGGTGCAAATGGGAGAATTGGAGTAAATATGGTTACCCAATAGGCTAGAGCATGACGGCAGTGAGAATTATCCACTGGTTAGCGGGTTACCGAGATTGCACATTATATGGAATGGCAATTGATTCATGCCGGTCGTTTGTGAGGAGTACCCACAAAATGGGAGGGTGCTATATAACCAGGTTATATGCAACCGGTTAGGCCGTTGTGTTAGTTTAGTTCAGCATTAGCGAACTGTGCAAGACCCGGTGGCTAAGGAGTTTATATGGAAACCCTTAGCCCTCGAGCATGCTAACATGAGGATTACCCATGTGATGGGTTTGAAACGTGCAATTATTTGATATGGCAAAAATTGGGTAGGGCATGGCTGCAGCGTGAGAATTATCCACGCTAGGCTAGAGCATGGCGGTATTGAGTTCGGGTTTGAGATGACCATTAGGCATCTGTGCTAGAGCATGCGAAAACGACATAATATGGTATGCGTTTTGGGGTGCTAGTATACCACATGATGAGCACACATGTATGGGTGGGAGGTAGAGGGATTCTCGCGAGAAGA
- antiviral response (SARS-COV-2 delta variant): no substantial antiviral response
- antiviral response [1]: no substantial antiviral response
